Experimental findings from patent US20230250191A1 (SHANGHAI JEMINCARE PHARMACEUTICAL, published 2023) are described below.

Test [1] has as its target T1, cynomolgus monkey IgE CH3-CH4 (cynomolgus monkey).
T1 construct: domain: CH3-CH4; Custom protein; also called Biotin -cyno IgE CH3-CH4; Biotin-cyno IgE
Nature of the test: BLI (Octet), method of Example 2, biotinylated cynomolgus IgE CH3-CH4. Here is the method: Detection of samples on machine (Octet Data Acquisition 11.1.0.11): First, samples were added to a 96-well plate (Greiner bio-one, 655209) with 200 µL/well according to the following table. The software parameters were then set, the plate temperature was set at 30° C., and the frequency of standard kinetic signals was collected at 5.0 Hz. Next, the CH1 sensor (Fortébio, 18-0039) with 1xPBST was pre-wet for 10 minutes, and then tested on the machine. Each cycle includes the following steps: 1) immersing in buffer for 60 s; 2) detecting whether the antigen non-specifically binds to the sensor; 3) regenerating with glycine solution at 10 mM pH 1.7; 4) immersing in buffer for 60 s; 5) immobilizating the antibody on the sensor for 30 s; 6) immersing the sensor in the buffer for 180 s; 7) Association of the antigen- antibody for 180 s; 8) dissociation of the antigen-antibody for 10 min; 9) regenerating the sensor.

A further test concerns the target T2, human FcRn (human, UniProt P55899 24-297; P61769 21-119).
T2 construct: Bought protein; also called hFcRn
Nature of the test: BLI (Octet RED96e), pH 6.0, FcRn captured through biotin-conjugated anti-His antibody, antibody 31.3-1000 nM. Here is the method: (§1) The affinity of the antibody to human FcRn (Acro, FCN-H52W7) and cynomolgus monkey FcRn (Acro, FCM-C52W9) was determined according to the method of Example 2 using Octet RED96e (Fortebio). Wherein, human FcRn and cynomolgus FcRn were diluted to 5 µg/mL with 1xPBS (10 mM Na2HPO4.12H2O, 2 mM KH2PO4, 137 mM NaCl, 2.7 mM KCl, pH 6.0), respectively, and biotin-conjugated THETM His-tagged mouse monoclonal antibody was diluted to 2 µg/mL; the antibody to be tested was diluted with 1x PBST (1xPBS, 0.02% Tween 20, pH6.0), and the antibody dilution concentration ranged from 1000 nM - 31.3 nM.

The next test addresses T3, cynomolgus monkey FcRn (cynomolgus monkey, UniProt Q8SPV9 24-297; Q8SPW0 21-119).
T3 construct: Bought protein; also called Cynomolgus FcRn; cynomolgus FcRn
The description is as above. As to the method:
as §1

T2 sequence (P55899 24-297 limits assumed, chain 1 of 2): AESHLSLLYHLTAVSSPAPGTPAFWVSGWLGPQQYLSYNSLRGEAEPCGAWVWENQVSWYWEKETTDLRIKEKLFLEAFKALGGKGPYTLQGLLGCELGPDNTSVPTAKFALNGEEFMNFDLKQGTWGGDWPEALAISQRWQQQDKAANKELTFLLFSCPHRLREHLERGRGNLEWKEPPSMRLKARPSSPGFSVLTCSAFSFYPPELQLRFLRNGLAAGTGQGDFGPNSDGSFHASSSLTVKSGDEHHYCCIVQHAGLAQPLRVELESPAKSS
T2 sequence (P61769 21-119 limits assumed, chain 2 of 2): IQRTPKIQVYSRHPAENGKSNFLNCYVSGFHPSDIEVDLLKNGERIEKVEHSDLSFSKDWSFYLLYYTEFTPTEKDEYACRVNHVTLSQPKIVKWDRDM
T3 sequence (Q8SPV9 24-297 limits assumed, chain 1 of 2): as the sequence (P55899 24-297 limits assumed, chain 1 of 2) above, with N39D, E44Q, G99S, S189G, S190N, L217M, S269T counted along it
T3 sequence (Q8SPW0 21-119 limits assumed, chain 2 of 2): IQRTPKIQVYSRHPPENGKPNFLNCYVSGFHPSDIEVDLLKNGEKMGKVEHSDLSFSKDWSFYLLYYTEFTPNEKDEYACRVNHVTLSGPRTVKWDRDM

B1: AB1904Am2 (antibody, V domains shown)
VH: EVQLVESGGGLVQPGGSLRLSCAVSGYSIRSGYSWNWVRQAPGKGLEWVSVITYAGSTNYADSVKGRFTISRDDSKNTFYLQMNSLRAEDTAVYYCARGSHYFGHWHFAVWGQGTLVTVSS
VL: DIQLTQSPSSLSASVGDRVTITCRASQSVADEWDSYMNWYQQKPGKAPKLLIYAASYLQSGVPSRFSGSGSGTDFTLTISSLQPEDFATYYCQQSHEDPYTFGQGTKLEIK
notes: IgG1 format
Broadly, the Kd is the concentration at which binding is half-saturated. By koff is commonly meant the rate constant with which the complex falls apart. By kon is commonly meant the second-order rate constant of association. In test [1], B1 gave a Kd of 0.11 nM, a koff of 0.000222 s⁻¹ and a kon of 2.06e+06 M⁻¹ s⁻¹.

B2: AB1904Am11 (antibody, V domains shown)
VH: EVQLVESGGGLVQPGGSLRLSCAVSGYSITSGYSWNWVRQAPGKGLEWVSVITYAGSTNYADSVKGRFTISRDDSKNTFYLQMNSLRAEDTAVYYCARGTHYFGHWHFAVWGQGTLVTVSS
VL: DIQLTQSPSSLSASVGDRVTITCRASQSVNDEADSYMNWYQQKPGKAPKLLIYAASYLQSGVPSRFSGSGSGTDFTLTISSLQPEDFATYYCQQSHEDPYTFGQGTKLEIK
notes: IgG1 format
In test [1], B2 yielded a Kd of 0.17 nM, a koff of 0.000248 s⁻¹ and a kon of 1.5e+06 M⁻¹ s⁻¹.

B3: AB1904Am5 (antibody, V domains shown)
VH: EVQLVESGGGLVQPGGSLRLSCAVSGYSITSGYSWNWVRQAPGKGLEWVSVITYAGSTNYADSVKGRFTISRDDSKNTFYLQMNSLRAEDTAVYYCARGSHYFGHWHFAVWGQGTLVTVSS
VL: DIQLTQSPSSLSASVGDRVTITCRASQSVDDEYDSYMNWYQQKPGKAPKLLIYAASYLQSGVPSRFSGSGSGTDFTLTISSLQPEDFATYYCQQSHEDPYTFGQGTKLEIK
notes: IgG1 format
Take B3: in test [1], the Kd stood at 0.15 nM, the koff is 0.000267 s⁻¹ and the kon was 1.77e+06 M⁻¹ s⁻¹.

B4: AB1904Am6 (antibody, V domains shown)
VH: EVQLVESGGGLVQPGGSLRLSCAVSGYSITSGYSWNWVRQAPGKGLEWVSVITYAGSTNYADSVKGRFTISRDDSKNTFYLQMNSLRAEDTAVYYCARGSNYFGHWHFAVWGQGTLVTVSS
VL: DIQLTQSPSSLSASVGDRVTITCRASQSVDSEGDSYMNWYQQKPGKAPKLLIYAASYLQSGVPSRFSGSGSGTDFTLTISSLQPEDFATYYCQQSHEDPYTFGQGTKLEIK
notes: IgG1 format
In test [1], B4 displayed a Kd of 0.18 nM, a koff of 0.000308 s⁻¹ and a kon of 1.74e+06 M⁻¹ s⁻¹.

B5: AB1904Am3 (antibody, V domains shown)
VH: EVQLVESGGGLVQPGGSLRLSCAVSGYSITSGYSWNWVRQAPGKGLEWVSVITYAGSTNYADSVKGRFTISRDDSKNTFYLQMNSLRAEDTAVYYCARGTHYFGHWHFAVWGQGTLVTVSS
VL: DIQLTQSPSSLSASVGDRVTITCRASQSVDAEGDSYMNWYQQKPGKAPKLLIYAASYLQSGVPSRFSGSGSGTDFTLTISSLQPEDFATYYCQQSHEDPYTFGQGTKLEIK
notes: IgG1 format
For the molecule B5, in test [1], the affinity, expressed as Kd, was 0.16 nM; the koff turned out to be 0.000272 s⁻¹; the kon came to 1.7e+06 M⁻¹ s⁻¹.

B6: AB1904Am10 (antibody)
VL: DIQLTQSPSSLSASVGDRVTITCRASQSVGDEADSYMNWYQQKPGKAPKLLIYAASYLQSGVPSRFSGSGSGTDFTLTISSLQPEDFATYYCQQSHEDPYTFGQGTKLEIKRTVAAPSVFIFPPSDEQLKSGTASVVCLLNNFYPREAKVQWKVDNALQSGNSQESVTEQDSKDSTYSLSSTLTLSKADYEKHKVYACEVTHQGLSSPVTKSFNRGEC
VH: not shown
notes: IgG1 format
As to B6, in the test with human FcRn, binding was characterised by a dissociation constant (Kd) of 98.7 nM, the koff is 0.121 s⁻¹ and the kon is 1.22e+06 M⁻¹ s⁻¹. Besides, in the test with cynomolgus monkey FcRn, the affinity, expressed as Kd, was 91.4 nM; the koff came to 0.106 s⁻¹; the kon is 1.16e+06 M⁻¹ s⁻¹.

B7: AB1904Am15 (antibody)
VL: DIQLTQSPSSLSASVGDRVTITCRASQSVGDEADSYMNWYQQKPGKAPKLLIYAASYLQSGVPSRFSGSGSGTDFTLTISSLQPEDFATYYCQQSHEDPYTFGQGTKLEIKRTVAAPSVFIFPPSDEQLKSGTASVVCLLNNFYPREAKVQWKVDNALQSGNSQESVTEQDSKDSTYSLSSTLTLSKADYEKHKVYACEVTHQGLSSPVTKSFNRGEC
VH: EVQLVESGGGLVQPGGSLRLSCAVSGYSITSGYSWNWVRQAPGKGLEWVSVITYAGSTNYADSVKGRFTISRDDSKNTFYLQMNSLRAEDTAVYYCARGTHYFGHWHFAVWGQGTLVTVSSASTKGPSVFPLAPSSKSTSGGTAALGCLVKDYFPEPVTVSWNSGALTSGVHTFPAVLQSSGLYSLSSVVTVPSSSLGTQTYICNVNHKPSNTKVDKKVEPKSCDKTHTCPPCPAPELLGGPSVFLFPPKPKDTLYITREPEVTCVVVDVSHEDPEVKFNWYVDGVEVHNAKTKPREEQYNSTYRVVSVLTVLHQDWLNGKEYKCKVSNKALPAPIEKTISKAKGQPREPQVYTLPPSREEMTKNQVSLTCLVKGFYPSDIAVEWESNGQPENNYKTTPPVLDSDGSFFLYSKLTVDKSRWQQGNVFSCSVMHEALHNHYTQKSLSLSPGK
notes: Same variable regions as AB1904Am10
In the test with human FcRn, B7 came in with a Kd of 32.8 nM, a koff of 0.0287 s⁻¹ and a kon of 875000 M⁻¹ s⁻¹. In the test with cynomolgus monkey FcRn, this molecule displayed a Kd of 31.5 nM, a koff of 0.0291 s⁻¹ and a kon of 922000 M⁻¹ s⁻¹.
